Measurements published in PMC10112281.
Like-named read-outs stand apart in the source and are kept apart here. Where no end group is shown, it is not given here.

How the values were obtained:
[1] = molecular target: FIP200 CLAW domain (Homo sapiens) (UniProt Q8TDY2); details: cited from earlier work
[2] = molecular target: FIP200 CLAW domain (Homo sapiens) (UniProt Q8TDY2); details: cited from earlier work; remark: listed apart in the source
[3] = molecular target: T1, FITC-labeled TNIP1 FIR peptide, unmodified; assay: fluorescence polarisation
T1 chain: SSGTSSEFEVVTPEE

[4] = molecular target: T2, FITC-labeled TNIP1 FIR peptide, pS122; assay: fluorescence polarisation
T2 chain: SSGTSSEFEVVTPEE

[5] = molecular target: T3, FITC-labeled TNIP1 FIR peptide, pS123; assay: fluorescence polarisation
T3 chain: SSGTSSEFEVVTPEE

[6] = molecular target: recombinant His6-TEV-FIP200-CLAW domain; assay: fluorescence polarisation

Molecule: OPTN phosphorylated (from UniProt Q96CV9)
- Kd [1]: 11.5 µM

Molecule: OPTN (from UniProt Q96CV9)
- Kd [2]: 306 µM

B1: recombinant His6-TEV-FIP200-CLAW domain (domain or fragment)
chain: SRHSEKIAIRDFQVGDLVLIILDERHDNYVLFTVSPTLYFLHSESLPALDLKPGEGASGASRRPWVLGKVMEKEYCQAKKAQNRFKVPLGTKFYRVKAVSWNKKV
modifications: not checked
- Kd [3]: 46 µM
- Kd [4]: 9.7 µM
- Kd [5]: 3.27 µM

Molecule: SSGTSSEFEVVTPEE (also: phosphoserine pS123, place not mapped) [unlabeled TNIP1 pS123 peptide]
- IC50 [6]: 70.2 µM
